Reference: the supplement of paper PMC9112550, “Optimization of the antimicrobial peptide Bac7 by deep mutational scanning” (BMC Biology, 2022)

Tested on: Escherichia coli TOP10
Assay: shrunken log2 fold change of peptide-encoding DNA abundance (4.5 h post-induction vs induction); higher = less antimicrobial activity (less host growth inhibition)
Conditions: time post-induction: 4.5 h; library: site-saturation at positions 5, 18, 19, 20
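Also: peptides expressed intracellularly from a pBAD plasmid library in pooled LB shake-flask culture, induced with 0.3% L-arabinose, DNA abundance read by NGS, three biological replicates, DESeq2 with apeglm shrinkage.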

Row | Sequence | shrunken log2 fold change
1 | RRIRNRPPRLPRPRPRPIWPPRP | 0.152
2 | RRIRIRPPRLPRPRPRPPRLPRP | 0.256
3 | RRIRRRPPRLPRPRPRPLKDPRP | -0.152
4 | RRIRVRPPRLPRPRPRPMDGPRP | 0.145
5 | RRIRPRPPRLPRPRPRPIFMPRP | -0.0036
6 | RRIRARPPRLPRPRPRPSTAPRP | 0.482
7 | RRIRQRPPRLPRPRPRPKCPPRP | -0.0714
8 | RRIRVRPPRLPRPRPRPTFIPRP | -0.166
9 | RRIRGRPPRLPRPRPRPLKHPRP | 0.0581
10 | RRIRSRPPRLPRPRPRPNFSPRP | -0.112
11 | RRIRKRPPRLPRPRPRPIYNPRP | -0.0567
12 | RRIRNRPPRLPRPRPRPREEPRP | -0.0547
13 | RRIRFRPPRLPRPRPRPEQDPRP | 1.57
14 | RRIRCRPPRLPRPRPRPQVSPRP | -0.0343
15 | RRIRVRPPRLPRPRPRPTGPPRP | 0.164
16 | RRIRLRPPRLPRPRPRPRTTPRP | 0.182
17 | RRIRPRPPRLPRPRPRPYPHPRP | -0.237
18 | RRIRKRPPRLPRPRPRPHHWPRP | 0.706
19 | RRIRRRPPRLPRPRPRPMYKPRP | -0.0524
20 | RRIRYRPPRLPRPRPRPDAFPRP | -1.27
21 | RRIRKRPPRLPRPRPRPMELPRP | 0.159
22 | RRIRCRPPRLPRPRPRPCCNPRP | -0.188
23 | RRIRTRPPRLPRPRPRPEMLPRP | 0.0362
24 | RRIRDRPPRLPRPRPRPFWIPRP | -0.408
25 | RRIRQRPPRLPRPRPRPKDDPRP | -0.0913

Row | Sequence | shrunken log2 fold change
26 | RRIRMRPPRLPRPRPRPDCIPRP | 1.76
27 | RRIRTRPPRLPRPRPRPKFCPRP | 0.365
28 | RRIRPRPPRLPRPRPRPKVKPRP | -0.236
29 | RRIRHRPPRLPRPRPRPHPFPRP | -0.3
30 | RRIRIRPPRLPRPRPRPSDEPRP | -0.698
31 | RRIRKRPPRLPRPRPRPISQPRP | 0.113
32 | RRIRSRPPRLPRPRPRPCRAPRP | -0.0808
33 | RRIRVRPPRLPRPRPRPLGRPRP | 0.267
34 | RRIRWRPPRLPRPRPRPYTAPRP | -0.611
35 | RRIRCRPPRLPRPRPRPYGIPRP | -0.128
36 | RRIRHRPPRLPRPRPRPTTEPRP | -0.0115
37 | RRIRRRPPRLPRPRPRPNIDPRP | -0.0882
38 | RRIRWRPPRLPRPRPRPWARPRP | 0.135
39 | RRIRERPPRLPRPRPRPHRDPRP | -0.063
40 | RRIRGRPPRLPRPRPRPCMNPRP | 0.104
41 | RRIRRRPPRLPRPRPRPWIFPRP | 0.0818
42 | RRIRVRPPRLPRPRPRPHIQPRP | -0.528
43 | RRIRQRPPRLPRPRPRPFWMPRP | 0.00494
44 | RRIRYRPPRLPRPRPRPEHLPRP | -0.357
45 | RRIRQRPPRLPRPRPRPSCDPRP | 0.0694
46 | RRIRTRPPRLPRPRPRPWERPRP | -0.0102
47 | RRIRSRPPRLPRPRPRPWKHPRP | -0.0883
48 | RRIRLRPPRLPRPRPRPVHNPRP | -0.281
49 | RRIRYRPPRLPRPRPRPDKDPRP | -0.151
50 | RRIRNRPPRLPRPRPRPMFMPRP | -0.424

Row | Sequence | shrunken log2 fold change
51 | RRIRLRPPRLPRPRPRPSTFPRP | -0.33
52 | RRIRKRPPRLPRPRPRPKCGPRP | 0.0305
53 | RRIRLRPPRLPRPRPRPLEGPRP | 0.765
54 | RRIRNRPPRLPRPRPRPSLMPRP | 0.0538
55 | RRIRYRPPRLPRPRPRPIHAPRP | -1.49
56 | RRIRPRPPRLPRPRPRPKGEPRP | 0.125
57 | RRIRHRPPRLPRPRPRPTGPPRP | 0.149
58 | RRIRQRPPRLPRPRPRPNCDPRP | 0.0233
59 | RRIRTRPPRLPRPRPRPPTPPRP | 0.368
60 | RRIRLRPPRLPRPRPRPDSVPRP | 0.0031
61 | RRIRKRPPRLPRPRPRPYFEPRP | -0.584
62 | RRIRNRPPRLPRPRPRPWHAPRP | -0.0713
63 | RRIRERPPRLPRPRPRPPTTPRP | 0.322
64 | RRIRYRPPRLPRPRPRPCTHPRP | -1.23
65 | RRIRMRPPRLPRPRPRPHPCPRP | 0.046
66 | RRIRHRPPRLPRPRPRPDPDPRP | -0.0982
67 | RRIRWRPPRLPRPRPRPHSEPRP | -0.162
68 | RRIRCRPPRLPRPRPRPSFFPRP | -0.552
69 | RRIRSRPPRLPRPRPRPNFNPRP | -0.298
70 | RRIRWRPPRLPRPRPRPNYDPRP | -0.24
71 | RRIRQRPPRLPRPRPRPGAQPRP | 0.528
72 | RRIRHRPPRLPRPRPRPFLPPRP | -0.671
73 | RRIRMRPPRLPRPRPRPQNDPRP | -0.179
74 | RRIRKRPPRLPRPRPRPCPVPRP | -0.106
75 | RRIRNRPPRLPRPRPRPNVNPRP | -0.795

Row | Sequence | shrunken log2 fold change
76 | RRIRFRPPRLPRPRPRPWCKPRP | -0.0278
77 | RRIRRRPPRLPRPRPRPPHSPRP | 0.916
78 | RRIRCRPPRLPRPRPRPDSTPRP | -0.235
79 | RRIRMRPPRLPRPRPRPIDIPRP | 0.476
80 | RRIRMRPPRLPRPRPRPIWRPRP | 0.128
81 | RRIRKRPPRLPRPRPRPMNVPRP | 0.13
82 | RRIRFRPPRLPRPRPRPGLQPRP | -0.18
83 | RRIRARPPRLPRPRPRPGLMPRP | 0.524
84 | RRIRARPPRLPRPRPRPGGAPRP | 0.76
85 | RRIRVRPPRLPRPRPRPLDIPRP | -0.0121
86 | RRIRKRPPRLPRPRPRPANKPRP | 0.142
87 | RRIRFRPPRLPRPRPRPIHYPRP | -1.14
88 | RRIRCRPPRLPRPRPRPPPPPRP | 1.55
89 | RRIRHRPPRLPRPRPRPQCDPRP | -0.13
90 | RRIRFRPPRLPRPRPRPLSIPRP | -0.203
91 | RRIRCRPPRLPRPRPRPRVWPRP | 0.747
92 | RRIRTRPPRLPRPRPRPDNSPRP | -0.0647
93 | RRIRIRPPRLPRPRPRPYWRPRP | -0.478
94 | RRIRVRPPRLPRPRPRPISYPRP | -0.158
95 | RRIRHRPPRLPRPRPRPKSPPRP | -0.0893
96 | RRIRKRPPRLPRPRPRPHLRPRP | -0.0961
97 | RRIRQRPPRLPRPRPRPYQLPRP | -0.00448
98 | RRIRARPPRLPRPRPRPLHHPRP | -0.0724
99 | RRIRCRPPRLPRPRPRPTQPPRP | 0.222
100 | RRIRPRPPRLPRPRPRPQYHPRP | -0.68

Row | Sequence | shrunken log2 fold change
101 | RRIRVRPPRLPRPRPRPHVIPRP | -0.0921
102 | RRIRYRPPRLPRPRPRPAASPRP | -0.0616
103 | RRIRHRPPRLPRPRPRPWMGPRP | -0.205
104 | RRIRARPPRLPRPRPRPEQTPRP | 1.18
105 | RRIRSRPPRLPRPRPRPASGPRP | 0.268
106 | RRIRSRPPRLPRPRPRPSNAPRP | -0.276
107 | RRIRNRPPRLPRPRPRPSEEPRP | 0.0717
108 | RRIRHRPPRLPRPRPRPAGPPRP | 0.056
109 | RRIRIRPPRLPRPRPRPMVNPRP | -0.294
110 | RRIRVRPPRLPRPRPRPENYPRP | -0.0159
111 | RRIRFRPPRLPRPRPRPYPLPRP | -0.604
112 | RRIRARPPRLPRPRPRPIACPRP | 0.0285
113 | RRIRPRPPRLPRPRPRPSFGPRP | -0.156
114 | RRIRRRPPRLPRPRPRPVADPRP | 0.228
115 | RRIRERPPRLPRPRPRPLIQPRP | -0.28
116 | RRIRNRPPRLPRPRPRPSMDPRP | 0.00334
117 | RRIRPRPPRLPRPRPRPQMCPRP | -0.101
118 | RRIRCRPPRLPRPRPRPHDFPRP | -0.0215
119 | RRIRCRPPRLPRPRPRPDQRPRP | -0.254
120 | RRIRARPPRLPRPRPRPYARPRP | -0.118
121 | RRIRMRPPRLPRPRPRPRGRPRP | 1.2
122 | RRIRWRPPRLPRPRPRPTHTPRP | -0.252
123 | RRIRQRPPRLPRPRPRPAACPRP | 0.183
124 | RRIRRRPPRLPRPRPRPCMEPRP | -0.174
125 | RRIRARPPRLPRPRPRPRGHPRP | 0.644
